These results are taken from paper PMC6751209.

The test addresses 53BP1 (UniProt Q12888). Put plainly: FLAG-53BP1 IP, Myc-PP4R3β immunoblot. Conditions: reference: wild type, mitotic cells; sites S840.

For “PP4R3β (from UniProt Q5MIZ7) S840A, mitotic cells”, the “binding against the reference” value is “weaker”.
